What was measured:
AncSZ = test: phosphorylation enrichment, bacterial display (enrichment ratio); higher = better substrate or ligand; peptides without Tyr show the background
EPHB1 = EPHB1 (UniProt P54762); test: as above
EPHB2 = EPHB2 (UniProt P29323); test: as above
FGFR1 = FGFR1 (UniProt P11362); test: as above
FGFR3 = FGFR3 (UniProt P22607); test: as above
Fer (mouse) = test: as above
Fes = Fes (UniProt P07332); test: as above
Fyn = Fyn (UniProt P06241); test: as above
Hck = Hck (UniProt P08631); test: as above
Jak2 = Jak2 (UniProt O60674); test: as above
MERTK = MERTK (UniProt Q12866); test: as above
c-Abl (mouse) = test: as above
c-Src = test: as above
Grb2 SH2 = Grb2 SH2 (UniProt P62993); test: SH2 binding enrichment of the phosphorylated peptide, bacterial display (enrichment ratio); higher = better substrate or ligand; peptides without Tyr show the background
SHP2-C SH2 = test: as above
c-Src SH2 = test: as above
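For SH2 binding enrichment of the phosphorylated peptide, bacterial display in this document: peptide library displayed on the E. coli surface as eCPX fusions, selected cells deep-sequenced, score is each peptide's frequency after selection divided by its frequency in the input.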
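For phosphorylation enrichment, bacterial display in this document: 11-residue human phosphosite peptides and single-mutation variants displayed on the E. coli surface, counted by deep sequencing, each peptide's frequency after selection divided by its frequency in the unselected input library; frequency after pTyr selection over input frequency; kinase dosed for 20-30% of maximal phosphorylation in three min.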

Sequence of EPHB2 (P29323 whole entry, looked up): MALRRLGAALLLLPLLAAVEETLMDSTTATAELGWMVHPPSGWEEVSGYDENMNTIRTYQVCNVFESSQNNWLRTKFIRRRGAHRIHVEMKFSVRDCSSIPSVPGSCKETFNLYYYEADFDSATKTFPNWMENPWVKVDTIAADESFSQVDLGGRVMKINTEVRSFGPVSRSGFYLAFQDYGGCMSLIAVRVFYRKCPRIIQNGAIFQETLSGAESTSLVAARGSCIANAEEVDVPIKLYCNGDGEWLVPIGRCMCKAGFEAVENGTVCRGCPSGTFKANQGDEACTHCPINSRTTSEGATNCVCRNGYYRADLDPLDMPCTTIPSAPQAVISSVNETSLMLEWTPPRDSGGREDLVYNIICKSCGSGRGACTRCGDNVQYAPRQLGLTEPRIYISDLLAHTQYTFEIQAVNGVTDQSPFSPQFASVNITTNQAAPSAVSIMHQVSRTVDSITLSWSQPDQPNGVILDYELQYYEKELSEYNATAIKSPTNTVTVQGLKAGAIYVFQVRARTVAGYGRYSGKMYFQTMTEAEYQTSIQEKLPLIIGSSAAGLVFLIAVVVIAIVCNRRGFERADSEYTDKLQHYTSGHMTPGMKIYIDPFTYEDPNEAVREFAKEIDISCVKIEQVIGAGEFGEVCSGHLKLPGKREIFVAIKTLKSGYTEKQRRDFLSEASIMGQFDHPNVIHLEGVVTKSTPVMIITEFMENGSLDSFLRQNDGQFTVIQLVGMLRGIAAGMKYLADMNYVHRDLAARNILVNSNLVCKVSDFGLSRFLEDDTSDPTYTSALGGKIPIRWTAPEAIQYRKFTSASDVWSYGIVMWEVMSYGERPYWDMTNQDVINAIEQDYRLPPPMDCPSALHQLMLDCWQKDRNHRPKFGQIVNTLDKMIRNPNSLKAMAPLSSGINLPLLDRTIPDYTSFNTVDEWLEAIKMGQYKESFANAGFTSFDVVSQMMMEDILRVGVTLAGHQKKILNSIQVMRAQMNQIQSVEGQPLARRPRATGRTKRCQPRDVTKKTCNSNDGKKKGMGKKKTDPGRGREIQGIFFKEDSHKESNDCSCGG
Sequence of Jak2 (O60674 whole entry, looked up): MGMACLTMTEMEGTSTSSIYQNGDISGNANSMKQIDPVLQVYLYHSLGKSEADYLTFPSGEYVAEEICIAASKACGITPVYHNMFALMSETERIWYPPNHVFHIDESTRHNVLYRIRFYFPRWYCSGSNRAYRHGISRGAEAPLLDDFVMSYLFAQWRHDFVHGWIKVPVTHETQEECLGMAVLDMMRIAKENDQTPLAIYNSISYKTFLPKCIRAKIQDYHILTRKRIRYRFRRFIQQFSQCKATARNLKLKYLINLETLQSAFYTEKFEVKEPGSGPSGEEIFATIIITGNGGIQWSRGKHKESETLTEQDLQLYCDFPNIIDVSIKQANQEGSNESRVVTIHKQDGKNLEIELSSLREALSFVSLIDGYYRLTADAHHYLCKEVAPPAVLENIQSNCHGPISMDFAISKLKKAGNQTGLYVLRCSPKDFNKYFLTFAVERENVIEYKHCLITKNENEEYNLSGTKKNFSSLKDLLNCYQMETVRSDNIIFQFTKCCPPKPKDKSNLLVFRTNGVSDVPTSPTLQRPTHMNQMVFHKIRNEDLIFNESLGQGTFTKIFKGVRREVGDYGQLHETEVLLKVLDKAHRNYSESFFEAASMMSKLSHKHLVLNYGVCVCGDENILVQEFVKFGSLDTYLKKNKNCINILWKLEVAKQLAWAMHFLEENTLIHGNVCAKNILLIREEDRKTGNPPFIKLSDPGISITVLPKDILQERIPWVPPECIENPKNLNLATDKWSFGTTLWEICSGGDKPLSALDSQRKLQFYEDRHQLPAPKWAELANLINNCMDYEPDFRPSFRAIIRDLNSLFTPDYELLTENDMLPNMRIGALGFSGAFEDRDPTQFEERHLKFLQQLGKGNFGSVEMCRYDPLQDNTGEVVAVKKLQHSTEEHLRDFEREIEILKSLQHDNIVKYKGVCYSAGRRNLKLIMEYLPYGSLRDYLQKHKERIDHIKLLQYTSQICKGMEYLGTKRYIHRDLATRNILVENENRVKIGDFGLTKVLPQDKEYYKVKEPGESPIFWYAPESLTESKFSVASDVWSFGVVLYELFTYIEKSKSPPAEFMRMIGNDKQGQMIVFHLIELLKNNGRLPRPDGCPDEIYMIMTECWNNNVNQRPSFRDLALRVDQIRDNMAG
Sequence of FGFR1 (P11362 whole entry, looked up): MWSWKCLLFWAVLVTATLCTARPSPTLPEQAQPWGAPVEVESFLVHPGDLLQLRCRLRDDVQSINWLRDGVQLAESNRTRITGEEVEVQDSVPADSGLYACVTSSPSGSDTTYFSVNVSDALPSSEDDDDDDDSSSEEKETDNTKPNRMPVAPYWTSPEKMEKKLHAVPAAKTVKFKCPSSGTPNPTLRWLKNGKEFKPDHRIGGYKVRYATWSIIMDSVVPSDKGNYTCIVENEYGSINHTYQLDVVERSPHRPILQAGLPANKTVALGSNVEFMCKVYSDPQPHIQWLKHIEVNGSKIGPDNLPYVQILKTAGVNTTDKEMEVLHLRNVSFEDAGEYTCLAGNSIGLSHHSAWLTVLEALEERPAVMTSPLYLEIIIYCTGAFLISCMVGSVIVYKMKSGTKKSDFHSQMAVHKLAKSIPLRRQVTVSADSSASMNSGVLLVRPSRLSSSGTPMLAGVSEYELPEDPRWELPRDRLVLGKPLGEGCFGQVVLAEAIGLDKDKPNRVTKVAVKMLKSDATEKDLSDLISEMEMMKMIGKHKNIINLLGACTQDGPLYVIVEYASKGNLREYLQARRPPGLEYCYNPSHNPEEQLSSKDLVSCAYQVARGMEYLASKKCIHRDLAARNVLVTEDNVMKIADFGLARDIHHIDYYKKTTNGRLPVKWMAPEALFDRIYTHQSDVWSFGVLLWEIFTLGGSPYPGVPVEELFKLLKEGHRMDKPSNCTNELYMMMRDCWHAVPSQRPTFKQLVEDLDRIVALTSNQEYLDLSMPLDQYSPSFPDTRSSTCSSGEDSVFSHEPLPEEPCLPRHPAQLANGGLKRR
Sequence of Fes (P07332 whole entry, looked up): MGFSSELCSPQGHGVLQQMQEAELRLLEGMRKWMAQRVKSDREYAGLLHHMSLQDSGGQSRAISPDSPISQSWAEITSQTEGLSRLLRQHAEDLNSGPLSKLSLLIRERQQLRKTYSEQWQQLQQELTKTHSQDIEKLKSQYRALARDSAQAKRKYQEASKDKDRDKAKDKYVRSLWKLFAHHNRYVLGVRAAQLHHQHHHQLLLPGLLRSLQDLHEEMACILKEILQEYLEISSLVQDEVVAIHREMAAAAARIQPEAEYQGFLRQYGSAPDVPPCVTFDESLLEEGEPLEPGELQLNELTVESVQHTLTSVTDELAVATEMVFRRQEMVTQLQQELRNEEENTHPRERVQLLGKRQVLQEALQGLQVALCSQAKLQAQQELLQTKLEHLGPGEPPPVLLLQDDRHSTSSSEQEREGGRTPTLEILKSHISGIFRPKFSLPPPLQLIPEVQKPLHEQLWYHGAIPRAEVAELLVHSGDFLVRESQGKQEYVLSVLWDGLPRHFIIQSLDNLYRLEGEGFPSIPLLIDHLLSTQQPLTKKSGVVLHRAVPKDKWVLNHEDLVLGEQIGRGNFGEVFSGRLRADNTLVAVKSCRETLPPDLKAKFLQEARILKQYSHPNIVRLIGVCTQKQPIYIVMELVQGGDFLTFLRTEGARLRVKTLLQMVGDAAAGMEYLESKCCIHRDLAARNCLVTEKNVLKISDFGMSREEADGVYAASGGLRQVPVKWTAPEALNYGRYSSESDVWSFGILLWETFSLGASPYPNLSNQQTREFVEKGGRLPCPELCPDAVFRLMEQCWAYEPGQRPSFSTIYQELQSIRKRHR
Sequence of MERTK (Q12866 whole entry, looked up): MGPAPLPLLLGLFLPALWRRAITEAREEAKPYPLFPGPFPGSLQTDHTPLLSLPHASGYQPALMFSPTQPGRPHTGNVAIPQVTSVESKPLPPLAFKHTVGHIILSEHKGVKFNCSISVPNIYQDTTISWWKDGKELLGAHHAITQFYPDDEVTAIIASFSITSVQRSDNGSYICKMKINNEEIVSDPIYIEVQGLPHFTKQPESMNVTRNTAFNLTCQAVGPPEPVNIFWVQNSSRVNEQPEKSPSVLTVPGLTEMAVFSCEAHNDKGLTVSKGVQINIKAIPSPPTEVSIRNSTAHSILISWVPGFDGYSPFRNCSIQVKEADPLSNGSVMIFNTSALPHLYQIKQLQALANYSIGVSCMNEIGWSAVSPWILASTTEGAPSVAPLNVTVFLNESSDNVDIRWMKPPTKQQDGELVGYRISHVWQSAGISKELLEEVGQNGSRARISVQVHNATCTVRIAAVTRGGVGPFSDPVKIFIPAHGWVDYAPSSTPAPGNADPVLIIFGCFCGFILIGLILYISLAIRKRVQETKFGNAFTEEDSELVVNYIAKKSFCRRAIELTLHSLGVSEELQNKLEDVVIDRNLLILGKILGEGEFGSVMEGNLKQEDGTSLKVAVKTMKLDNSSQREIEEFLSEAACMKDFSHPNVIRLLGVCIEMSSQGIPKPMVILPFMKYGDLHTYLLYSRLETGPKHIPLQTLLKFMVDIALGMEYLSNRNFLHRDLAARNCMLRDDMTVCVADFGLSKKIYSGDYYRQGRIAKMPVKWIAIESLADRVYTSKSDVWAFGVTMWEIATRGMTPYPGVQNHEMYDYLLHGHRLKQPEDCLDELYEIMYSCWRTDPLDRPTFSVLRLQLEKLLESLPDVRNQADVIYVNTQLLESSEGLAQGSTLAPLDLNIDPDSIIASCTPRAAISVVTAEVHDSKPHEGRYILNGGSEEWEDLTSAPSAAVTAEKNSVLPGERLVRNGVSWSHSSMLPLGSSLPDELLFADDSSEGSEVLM

Row | SH2 binding enrichment (Grb2 SH2) | SH2 binding enrichment (SHP2-C SH2) | SH2 binding enrichment (c-Src SH2) | Sequence | phosphorylation enrichment (AncSZ) | phosphorylation enrichment (EPHB1) | phosphorylation enrichment (EPHB2) | phosphorylation enrichment (FGFR1) | phosphorylation enrichment (FGFR3) | phosphorylation enrichment (Fer (mouse)) | phosphorylation enrichment (Fes) | phosphorylation enrichment (Fyn) | phosphorylation enrichment (Hck) | phosphorylation enrichment (Jak2) | phosphorylation enrichment (MERTK) | phosphorylation enrichment (c-Abl (mouse)) | phosphorylation enrichment (c-Src)
1 | 0.569 | 0.498 | 0.413 | NDKLCYEVSSP [CDH13_Y66_R65C] | 1.52 | 0.677 | 0.724 | 0.514 | 0.876 | 0.883 | 1.53 | 0.562 | 0.548 | 1 | 0.394 | 0.837 | 0.596
2 | 0.872 | 0.898 | 0.595 | NFDLDYDSVQP [MYC_Y16_YF] | 2 | 1.28 | 0.923 | 0.573 | 0.608 | 0.591 | 0.974 | 0.572 | 0.575 | 1.06 | 0.458 | 0.68 | 0.814
3 | 0.978 | 0.594 | 0.533 | NFFEFYVDDPP [GCHFR_Y48_YF] | 1.44 | 0.704 | 0.621 | 0.741 | 0.925 | 0.557 | 1.28 | 0.569 | 0.499 | 1.12 | 0.531 | 0.836 | 0.575
4 | 0.963 | 0.827 | 0.54 | NFHRGYHLQVL [CD200R1L_Y138] | 0.755 | 0.483 | 0.475 | 0.453 | 0.606 | 0.478 | 0.835 | 0.5 | 0.375 | 0.54 | 0.351 | 0.787 | 0.353
5 | 0.959 | 0.908 | 1.01 | NGRQCYSCKGN [PLAUR_Y217] | 0.481 | 0.266 | 0.336 | 0.381 | 0.341 | 0.377 | 0.456 | 0.324 | 0.336 | 0.574 | 0.379 | 0.416 | 0.346
6 | 0.836 | 1.04 | 0.402 | NIEPVYLNMLL [ATR_Y317] | 1.58 | 6.94 | 5.01 | 8.65 | 5.81 | 10.5 | 1.48 | 6.88 | 5.48 | 1.36 | 3.46 | 4.49 | 6.42
7 | 1.01 | 0.684 | 0.55 | NQILPYIKELV [PPP2R1B_Y341] | 1.01 | 0.509 | 0.611 | 0.579 | 0.774 | 0.528 | 1.14 | 0.43 | 0.52 | 1.08 | 0.456 | 0.72 | 0.477

Further lines, the sequence ahead of its results:

Row | Sequence | SH2 binding enrichment (Grb2 SH2) | SH2 binding enrichment (SHP2-C SH2) | SH2 binding enrichment (c-Src SH2) | phosphorylation enrichment (AncSZ) | phosphorylation enrichment (EPHB1) | phosphorylation enrichment (EPHB2) | phosphorylation enrichment (FGFR1) | phosphorylation enrichment (FGFR3) | phosphorylation enrichment (Fer (mouse)) | phosphorylation enrichment (Fes) | phosphorylation enrichment (Fyn) | phosphorylation enrichment (Hck) | phosphorylation enrichment (Jak2) | phosphorylation enrichment (MERTK) | phosphorylation enrichment (c-Abl (mouse)) | phosphorylation enrichment (c-Src)
8 | NACGLYHTMNG [GATA5_Y216_K218T] | 0.849 | 0.589 | 4.06 | 0.959 | 0.934 | 0.849 | 2.47 | 1.79 | 0.643 | 0.95 | 0.865 | 2.21 | 0.956 | 3.18 | 0.746 | 3.06
9 | NAPNSYGRRPI [CDKN2A_Y44] | 0.726 | 0.799 | 0.392 | 1.23 | 0.581 | 1.21 | 0.692 | 0.81 | 1.2 | 0.952 | 0.678 | 0.757 | 0.76 | 0.713 | 0.885 | 0.75
10 | NFRTTYVNANE [KCNH2_Y475] | 15.1 | 1.48 | 2.03 | 0.892 | 0.404 | 0.464 | 0.498 | 0.719 | 0.551 | 1.27 | 0.444 | 0.558 | 1.29 | 0.482 | 0.61 | 0.589
11 | NGEDLYAGSTD [XRCC1_Y515_P514L] | 0.834 | 0.555 | 0.469 | 1.17 | 0.517 | 0.541 | 0.489 | 0.613 | 0.52 | 1.05 | 0.66 | 0.886 | 1.02 | 0.446 | 0.743 | 0.807
12 | NKEPRYQEDPP [TJP2_Y479] | 1.43 | 0.822 | 0.78 | 0.852 | 0.525 | 0.607 | 0.625 | 0.823 | 0.59 | 0.999 | 0.693 | 0.546 | 0.832 | 0.508 | 0.48 | 0.461
13 | NLNGKYFKPRA [ANGPTL3_Y417_N418Y_YF] | 1.21 | 1.16 | 0.961 | 0.646 | 0.538 | 0.365 | 0.363 | 0.383 | 0.297 | 0.56 | 0.335 | 0.367 | 0.543 | 0.389 | 0.469 | 0.43
14 | NNHGNYIVRLG [ETFDH_Y172] | 0.889 | 0.991 | 0.781 | 0.619 | 0.548 | 0.563 | 0.456 | 0.595 | 0.438 | 0.723 | 0.5 | 0.481 | 0.702 | 0.416 | 0.667 | 0.547
15 | NNIDFYKNTTN [FGFR2_Y657_K659N_YF] | 0.804 | 0.611 | 0.434 | 0.746 | 0.484 | 0.389 | 0.442 | 0.609 | 0.448 | 0.792 | 0.472 | 0.553 | 0.574 | 0.352 | 0.57 | 0.369
16 | NQKGKYFNVER [ANAPC4_Y469_R465Q] | 1.15 | 1.03 | 0.667 | 0.614 | 0.353 | 0.372 | 0.361 | 0.469 | 0.39 | 0.603 | 0.462 | 0.449 | 0.489 | 0.373 | 0.588 | 0.386
17 | NRDNTYNPVSE [FGA_Y127_R129P] | 0.694 | 0.443 | 0.425 | 0.751 | 0.544 | 0.465 | 0.457 | 0.627 | 0.481 | 0.857 | 0.562 | 0.658 | 0.699 | 0.486 | 0.545 | 0.522
